According to US20160251419A1 (ROCKEFELLER UNIVERSITY, published 2016):

B1: monoclonal antibody 5c9.a2 (antibody, V domains shown)
VH: EVQLQESGPVLVKPGASVKMSCKASGYTFTDYYMNWVKQSHGKSLEWIGVINPYNGGTSYNQKFKGKATLTVDKSSSTAYMELNSLTSEDSAVYYCASLRRRTDYFDYWGQGTTLTVSS
VL: DIVMTQSHKFMSTSVGDRVSITCKASQDVGTAVAWYQQKPGQSPKLLIYWASTRHTGVPDRFTGSGSGTDFTLTISNVQSEDLADYFCQQYSSYPLTFGAGTKLELK
B2: monoclonal antibody 4a8.e11 (antibody, V domains shown)
VH: EVQLQESGGGLVKPGGSLKLSCAASGFTFSDYGMHWVRQAPEKGLEWVAYISSGSSTVYCADTVKGRFTISRDNAKNTLFLQMTSLRSEDTAMYYCARRWGYFDYWGQGTTLTVSS
VL: DIKMTQSPSSMYASLGERVTFTCKASQDINSFLSWFQQKPGKSPKTLIYRANRLVDGVPSRFSGSGSGQDYSLTITSLEFEDMGIYYCLQYDEFPYTFGGGTKLEIK
notes: Mouse hybridoma mAb raised against NUCB1-capped hIAPP protofibrils; kappa light chain; also called mAb 4a8.e11
B3: monoclonal antibody 3f2.e10 (antibody, V domains shown)
VH: EVQLQESGGGLVQPKGSLKLSCAASGFSFNTYAMNWVRQAPGKGLEWVARIRSKSNNYATYYADSVKDRFTISRDDSESMLYLQMNNLKTEDTAMYYCVRLGAMDYWGQGTSVTVSS
VL: DIVMTQSQKFMSTSVGDRVSVTCKASQNVGTNVAWYQQKPGQSPKALIYSASYRYSGVPDRFTGSGSGTDFTLTISNVQSEDLAEYFCQQYNSYPLTFGAGTKLEL
B4: monoclonal antibody 5a8.b11 (antibody, V domains shown)
VH: EVQLQESGPELVKPGASVKIPCKASGYTFTDYNMDWVKQSHGKSLEWIGDINPNNGGTIYNQKFKGKATLTVDKSSSTAYMELRSLTSEDTAVYYCARKGERGFDYWGQGTTLTVSS
VL: ENVLTQSPAIMSASLGEKVTMSCRASSSVNYMYWYQQKSDASPKLWIYYTSNLAPGVPARFSGSGSGNSYSLTISSMEGEDAATYYCQQFTSSPSTFGAGTKLELK
B5: monoclonal antibody 4b1.h9 (antibody, V domains shown)
VH: EVQLQESGPVLVKPGASVKMSCKASGYTFTDYYMNWVKQSHGKSLEWIGVINPYNGGTSYNQKFKGKATLTVDKSSSTAYMELNSLTSEDSAVYYCARRRGYAMDYWGQGTSVTVSS
VL: DIQMTQSPASLSASVGETVTITCRASENIYSYLAWYQQKQGKSPQLLVYNAKTLAEGVPSRFSGSGSGTQFSLKINSLQPEDFGSYYCQHHYGTPYTFGGGTNLEIK
B6: monoclonal antibody 7b6.b12 (antibody, V domains shown)
VH: EVQLQESGAELVKPGASVKISCKVSGYTFTDHTIHWMKQRPEQGLEWIGYIYPRDGSTKYNEKFKGKATLTADKSSSTAYMQLNSLTSEDSAVYFCARPYDYAWFAYWGQGTLVTVSA
VL: DILLTQSPAILSVSPGERVSFSCRASQSIGTSIHWYQQRTNGSPRLLIKYASESISGIPSRFSGSGSGTDFTLSINSVESEDIADYYCQQSNSWPFTFGSGTKLEIK
notes: Mouse hybridoma mAb raised against NUCB1-capped hIAPP protofibrils; kappa light chain; also called mAb 7b6.b12

What follows are binders tested against Recombinant Aβ1-42 (rAβ1-42 peptides) in the Thioflavin T fibril formation assay (UniProt P05067 672-713) (assay: cell-based or functional assay).
Recombinant Aβ1-42 (rAβ1-42 peptides) in the Thioflavin T fibril formation assay, sequence (P05067 672-713 limits assumed): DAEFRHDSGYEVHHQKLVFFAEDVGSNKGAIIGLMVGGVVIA
For B1, the “T50 (time in minutes for 50% inhibition of fibril formation)” value was 43.2 min.
B2 was tested, and the “T50 (time in minutes for 50% inhibition of fibril formation)” value was 37.9 min.
With B3 the “T50 (time in minutes for 50% inhibition of fibril formation)” value was 42.6 min.
B4 was tested, and the “T50 (time in minutes for 50% inhibition of fibril formation)” value was 40.3 min.
B5 was tested, and the “T50 (time in minutes for 50% inhibition of fibril formation)” value was 60.7 min.
B6 was tested, and the “T50 (time in minutes for 50% inhibition of fibril formation)” value was 40.2 min.

The binders below were run against T1, amyloid-β Aβ(M1-42) peptide, structures along the aggregation pathway (Aβ1-42 protofibrils) (assay: dot blot of aggregation time points (FIG. 18)).
T1 construct: Expressed in E. coli
T1 sequence (peptide, as listed by the source): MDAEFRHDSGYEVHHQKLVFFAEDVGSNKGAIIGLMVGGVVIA
Excerpt: (A) Aβ₁₋₄₂ aggregation in a thioflavin T fluorescence assay guided sample collection (red circles) for a dot blot assay. (B) Samples from these time points were spotted on PVDF membranes and blotted with an anti-Aβ mAb to detect total Aβ₁₋₄₂, or with 4a8.e11, 3f2.e10, or 7b6.b12. (C) Bar graph showing quantitation of 4a8.e11 reactive material at indicated timepoints. (D) Bar graph showing quantitation of 3f2.e10 reactive material at indicated timepoints. (E) Bar graph showing quantitation of 7b6.b12 reactive material at indicated timepoints. The spots were quantified with ImageJ and normalized to total Aβ₁₋₄₂.
For kinetic experiments, aliquots of the purified Aβ42 were resuspended in 6M guanidinium hydrochloride and subjected to gel filtration on a Superdex Peptide column in 20 mM sodium phosphate buffer, pH 8, with 200 μM EDTA. The monomer-containing peak was then lyophilized and subjected to a second round of resuspension in 6M guanidinium hydrochloride and gel filtration on a Superdex Peptide column in 20 mM sodium phosphate buffer, pH 8, with 200 μM EDTA. […] Fluorescence measurements were made at regular intervals using FlexStation III (Molecular Devices) with excitation and emission at 440 and 480 nm, respectively. Each experimental point is the mean of the fluorescence signal of 6 wells containing aliquots of the same solution. […]
B2: binds.
B6: binds.
